Experimental data taken from patent publication US20230381281A1, “PHARMACEUTICAL COMPOSITION COMPRISING GLUCAGON/GLP-1/GIP TRIPLE AGONIST OR LONG-ACTING CONJUGATE THEREOF FOR PREVENTING OR TREATING LUPUS-RELATED DISEASES” (HANMI PHARM. CO., LTD., priority 2020, published 2023).
Bridge positions count the residues as written; N and C are the ends. Square brackets hold non-standard residues; d marks the D form. Ends that are not written are not given here. Aib = CC(C)(N)C(=O)O

Tests used:
Format in all cases: cell-based
[1] = target: T1, human GCG receptor (Homo sapiens, UniProt P47871); test: In vitro cAMP activity in human GCG receptor-expressing CHO cells (LANCE cAMP kit); details: for In vitro activity compared to native peptide (%) vs Glucagon: long-acting conjugates, relative titer from cAMP EC50 compared to human GCG; for activity on the glucagon receptor: statement in words in the description
T1 construct: expressed in transfected cells; host or cells: Chinese hamster ovary (CHO)
Procedure: (§1) In order to measure the activity of the triple agonists and long-acting conjugates thereof prepared according to Examples 1 and 2, the in-vitro cell activity was measured using cell lines transformed with GLP-1 receptor, glucagon (GCG) receptor, and GIP receptor, respectively.
(§2) The cell lines were transformed to express human GLP-1 receptor, human GCG receptor and human GIP receptor genes in Chinese hamster ovary (CHO), respectively, and are suitable for measuring the activities of GLP-1, GCG, and GIP. Therefore, the activity for each part was measured using each transformed cell line.
(§3) To measure the GCG activity of the triple agonists and long-acting conjugates prepared according to Examples 1 and 2, human GCG was diluted from 50 nM to […] by 4-fold serial dilution, and the triple agonists and long-acting conjugates thereof prepared according to Examples 1 and 2 were diluted from 400 nM to 0.00038 nM by 4-fold serial dilution. The culture medium was removed from the cultured human GCG receptor-expressing CHO cells, 5 μl of each of the serially diluted materials was added to the cells, and then 5 μl of buffer containing cAMP antibody was added to the cells, followed by 15 minutes of incubation at room temperature. Then, cells were lysed by adding 10 μl of detection mix containing cell lysis buffer, and reacted at room temperature for 90 minutes. The cell lysate after the reaction had been completed, was applied to the LANCE cAMP kit (PerkinElmer, USA) to calculate the EC50 value through the accumulated cAMP, and then compared with each other.

[2] = target: T2, human GIP receptor (Homo sapiens, UniProt P48546); test: In vitro cAMP activity in human GIP receptor-expressing CHO cells (LANCE cAMP kit); details: long-acting conjugates; relative titer from cAMP EC50 compared to human GIP
T2 construct: expressed in transfected cells; host or cells: Chinese hamster ovary (CHO)
T2 sequence (P48546 22-466): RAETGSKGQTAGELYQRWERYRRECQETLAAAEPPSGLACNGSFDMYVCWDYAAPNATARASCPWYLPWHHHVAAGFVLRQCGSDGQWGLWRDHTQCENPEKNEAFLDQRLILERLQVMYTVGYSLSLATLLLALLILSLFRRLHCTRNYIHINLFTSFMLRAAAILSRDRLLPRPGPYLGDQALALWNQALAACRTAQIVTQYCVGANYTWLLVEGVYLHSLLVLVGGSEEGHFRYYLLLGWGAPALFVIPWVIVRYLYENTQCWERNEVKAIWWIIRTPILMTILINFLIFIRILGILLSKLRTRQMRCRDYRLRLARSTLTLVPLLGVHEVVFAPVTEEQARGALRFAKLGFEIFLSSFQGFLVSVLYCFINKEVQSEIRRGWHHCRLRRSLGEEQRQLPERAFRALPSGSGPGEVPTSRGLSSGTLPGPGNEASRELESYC
Procedure: as §1, §2
as §3, with “measure the GIP activity of” for “measure the GCG activity of”, “long-acting conjugates thereof prepared according” for “long-acting conjugates prepared according”, “2, human GIP was diluted” for “2, human GCG was diluted”, “cultured human GIP receptor-expressing CHO” for “cultured human GCG receptor-expressing CHO”

[3] = target: T3, human GLP-1 receptor (Homo sapiens, UniProt P43220); test: In vitro cAMP activity in human GLP-1 receptor-expressing CHO cells (LANCE cAMP kit); details: long-acting conjugates; relative titer from cAMP EC50 compared to human GLP-1
T3 construct: expressed in transfected cells; host or cells: Chinese hamster ovary (CHO)
Procedure: as §1, §2
as §3, with “GLP-1” for “GCG”

T1 sequence (P47871 26-477): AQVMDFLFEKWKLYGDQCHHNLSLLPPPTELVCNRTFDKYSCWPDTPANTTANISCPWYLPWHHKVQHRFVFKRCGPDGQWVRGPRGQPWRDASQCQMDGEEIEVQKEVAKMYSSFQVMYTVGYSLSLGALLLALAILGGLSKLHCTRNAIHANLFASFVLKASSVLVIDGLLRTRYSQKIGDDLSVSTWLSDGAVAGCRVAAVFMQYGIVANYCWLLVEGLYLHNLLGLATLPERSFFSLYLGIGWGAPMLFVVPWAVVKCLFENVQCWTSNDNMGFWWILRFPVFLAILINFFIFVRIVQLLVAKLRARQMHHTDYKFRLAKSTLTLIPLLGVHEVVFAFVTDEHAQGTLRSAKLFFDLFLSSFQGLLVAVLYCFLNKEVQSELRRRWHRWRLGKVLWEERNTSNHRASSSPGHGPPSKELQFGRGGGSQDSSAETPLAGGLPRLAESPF
T3 sequence (P43220 24-463): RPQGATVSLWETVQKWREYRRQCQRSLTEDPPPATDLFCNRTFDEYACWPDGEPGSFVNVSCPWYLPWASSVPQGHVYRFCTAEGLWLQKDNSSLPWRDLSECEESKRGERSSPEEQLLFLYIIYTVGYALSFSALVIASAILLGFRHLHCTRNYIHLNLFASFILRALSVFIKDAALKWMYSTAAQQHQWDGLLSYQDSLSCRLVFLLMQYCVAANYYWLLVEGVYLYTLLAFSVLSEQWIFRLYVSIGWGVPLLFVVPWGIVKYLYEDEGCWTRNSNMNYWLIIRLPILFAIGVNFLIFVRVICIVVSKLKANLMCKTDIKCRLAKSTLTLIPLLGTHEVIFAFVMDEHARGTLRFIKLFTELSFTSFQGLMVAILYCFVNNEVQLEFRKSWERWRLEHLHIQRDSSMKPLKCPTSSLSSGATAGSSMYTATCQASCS

Row | Substance | In vitro activity compared to native peptide (%) vs Glucagon [1] [%] | In vitro activity compared to native peptide (%) vs GIP [2] [%] | In vitro activity compared to native peptide (%) vs GLP-1 [3] [%] | activity on the glucagon receptor [1]
1 | 66 (Y[Aib]QGTFTSDYSKYLDECRAKDFVQWLLDHHPSSGQPPPS; bridge 16-20) [compound 66] | – | – | – | very high activity
2 | 70 (Y[Aib]QGTFTSDYSKCLDEKRAKDFVQWLLDHHPSSGQPPPS; bridge 16-20) [compound 70] | – | – | – | very high activity
3 | 21 (Y[Aib]QGTFTSDYSKYLDECRAKEFVQWLLDHHPSSGQPPPS; bridge 16-20) [compound 21] | 1.6 | 0.2 | 0.1 | very high activity
4 | 22 (Y[Aib]QGTFTSDYSKCLDEKRAKEFVQWLLDHHPSSGQPPPS; bridge 16-20) [compound 22] | 0.9 | 0.5 | 0.1 | very high activity

Continued, values first:

Row | In vitro activity compared to native peptide (%) vs Glucagon [1] [%] | In vitro activity compared to native peptide (%) vs GIP [2] [%] | In vitro activity compared to native peptide (%) vs GLP-1 [3] [%] | activity on the glucagon receptor [1] | Substance
5 | 1.7 | 6.6 | 6.7 | – | 77 (Y[Aib]QGTFTSDYSKYLDEKAAKDFVQWLLDHHPSSGQPPPSC; bridge 16-20) [compound 77]
6 | – | – | – | very high activity | 97 (Y[Aib]QGTFTSDYSKYLDEKRAKEFVQWLLDCHPSSGQPPPS; bridge 16-20) [compound 97]
7 | 23.1 | 1.2 | 3.1 | very high activity | 42 (Y[Aib]QGTFTSDYSKYLDEKRAKEFVQWLLDHHPSSGQPPPSC; bridge 16-20) [compound 42]
8 | 4.0 | 0.3 | 0.3 | very high activity | 96 (Y[Aib]QGTFTSDYSKYLDEKRAKEFVQWLLDHCPSSGQPPPS; bridge 16-20) [compound 96]
9 | 13.5 | 0.6 | 2.1 | very high activity | 43 (Y[Aib]QGTFTSDYSKYLDEKRAKEFVQWLLDHHCSSGQPPPS; bridge 16-20) [compound 43]
10 | 6.9 | 0.7 | 15.4 | – | 50 (H[Aib]QGTFTSDYSKYLDEKRAKEFVQWLLDHHPSSGQPPPSC; bridge 16-20) [compound 50]
